Test results reported in paper PMC3173040.

Assays:
actin [1] = biological target: actin (UniProt P68135); test: SAXS
[2] = biological target: VopL fragment 200-484 (1W-VCD) (Vibrio parahaemolyticus) (UniProt Q87GE5); test: SEC-MALS
actin [3] = biological target: actin (UniProt P68135); test: SEC-MALS
[4] = biological target: 3W-VCD-AviTag bound to quantum dots (Vibrio parahaemolyticus) (UniProt Q87GE5); test: TIRF microscopy
actin [5] = biological target: actin (UniProt P68135); test: ITC

“VopL fragment 200-484 (1W-VCD) (from UniProt Q87GE5 200-484) (domain or fragment)” gave a stoichiometry N (actin molecules per 1W-VCD dimer) (actin [1]) of 2, a stoichiometry N [2] of 2 and a stoichiometry N (actin molecules per 1W-VCD dimer) (actin [3]) of 2.
With “actin (from UniProt P68135 1-377) (natural protein)” the percent of filaments associated with Qdots through the pointed end [4] was 10.9%.
“third W domain of VopL (domain or fragment)” was tested, and the Kd (actin [5]) was 410 nM.
